Patent US20040009486A1, “Compositions and methods utilizing DNA polymerases” (priority 1999, published 2004)

Key:
primer:template = experiment: Fidelity screen with rhodamine labeled non-complementary ddNTP; format: biochemical; settings: R110-labeled incorrect ddNTP
Experimental: Reactions (10 μl) contained 1 unit of enzyme in 1× reaction buffer, 15 nM primer template, 25 nM of unlabeled complementary ddNTP, and 25, 100, 500, or 1000 nM of rhodamine labeled non-complementary ddNTP in four separate reactions. The reactions were incubated in a Perkin-Elmer 9600 for 25 cycles as follows: 96° C. for 10 s, 50° C. for 5 s, and 60° C. for 30 s. The reactions were then quenched with ice-cold 0.2 M EDTA (final concentration) and the products were purified from unincorporated rhodamine labeled ddNTPs and analyzed as described above.
Fidelity was determined as the tendency of a DNA polymerase to incorporate the correct nucleotide in the presence of increasing amounts of a non-complementary nucleotide. These assays employed constant amounts of primer:template, an unlabeled complementary ddNTP and DNA polymerase, and various concentrations of a rhodamine-labeled non-complementary ddNTP, as described in the Experimental Protocol. The amount of misextended primers is plotted against the ratio of rhodamine-labeled incorrect ddNTP/unlabeled correct ddNTP (FIG. 18 panels A and B). We performed similar assays for all possible mispairs (Table IX).
To address these concerns, the insertion fidelity of the JDF-3 P410L/A485T and Taq F667Y mutants was compared. In the first set of fidelity assays, a constant amount of primer:template, an unlabeled complementary ddNTP, and increasing concentrations of R110-labeled non-complementary ddNTP was used (Materials and Methods). […] The amount of misextended primers was determined and plotted against the ratio of R110-labeled incorrect ddNTP/unlabeled correct ddNTP (FIG. 27, panels A and B). Similar assays for all 12 possible mispairs was performed (ddG:dT, ddT:dG, ddT:dC, ddC:dT, ddC:dA, ddA:dC, ddA:dG, ddG:dA, ddT:dT, ddC:dC, ddA:dA, ddG:dG). […] The other mispairs are formed less frequently, and at similar rates for the JDF-3 P410L/A485T and Taq F667Y mutants (data not shown).
Fidelity assays using labeled ddNTPs (10 μl) contained 1 unit DNA polymerase in 1× reaction buffer, 15 nM primer: template, 25 nM of unlabeled complementary ddNTP, and 25, 100, 500, or 1000 nM of rhodamine-labeled non-complementary ddNTP in four separate reactions. The reactions were incubated in a Perkin-Elmer 9600 for 25 cycles as follows: 96° C. for 10 s, 50° C. for 5 s, and 60° C. for 30 s. The reactions were quenched and analyzed as above.

[1] = cited from earlier work
[2] = Gardner and Jack, 1999; cited from earlier work
Primed M13 = experiment: Polymerase specific activity on primed M13 (Table IV); format: biochemical
Text: (§1) Recombinant JDF-3 DNA polymerase was purified as described below (see “Purification of JDF-3” (method 1)). The biochemical properties of JDF-3 DNA polymerase have been compared to those of other commercially available archaeal DNA polymerases. […] JDF-3 DNA polymerase was therefore chosen for development of a DNA sequencing enzyme.

DNA = experiment: Polymerase constant for DNA (Table IV); format: biochemical; settings: head names no parameter
Text: as §1

[3] = Polymerase constant for dNTP (Table IV); format: biochemical; settings: head names no parameter
Text: as §1

Activated DNA = experiment: Polymerase specific activity on activated DNA (Table IV); format: biochemical
Experimental: as §1
DNA polymerase activity was measured using purified JDF-3 polymerase mutants or heat-treated bacterial extracts prepared from various mutant clones. DNA polymerase activity was measured by monitoring the incorporation of ^3H-TTP into activated calf thymus DNA. A typical DNA polymerase reaction cocktail contained:
Incorporation was measured by adding 1 μl of polymerase samples to 10 μl aliquots of polymerase cocktail. DNA polymerase samples were diluted in a suitable storage buffer (e.g., 25 mM Tris-HCl (pH 7.5), 100 mM KCl, 0.1 mM EDTA, 1 mM DTT, 0.1% (v/v) Tween 20, 0.1% (v/v) Igepal 630, 10 μg/ml BSA, and 50% (v/v) glycerol). Polymerization reactions were conducted for 30 minutes at 72° C. Extension reactions were quenched on ice, and then 5 μl aliquots were spotted immediately onto DE81 ion-exchange filters (2.3 cm; Whatman #3658323). Unincorporated [^3H]TTP was removed by 6 washes with 2×SCC (0.3M NaCl, 30 mM sodium citrate, pH 7.0), followed by a brief wash with 100% ethanol. Incorporated radioactivity was measured by scintillation counting. […]

[4] = 3′ to 5′ exonuclease activity, Kong et al. method, bacterial lysates; format: biochemical
Experimental: To analyze JDF-3 mutant proteins, the DNA sequence encoding JDF-3 DNA polymerase was PCR amplified using primers GGGAAACATATGATCCTTGACGTTGATTAC (where NdeI site in bold and start codon underlined) and GGGAAAGGATCCTCACTTCTTCTTCCCCTTC (where BamHI site shown in bold type). The PCR products were digested, purified, and ligated into a high expression level vector using standard methods. Plasmid clones were transformed into BL21(DE3). Recombinant bacterial clones were grown using standard procedures and JDF-3 polymerase mutants were expressed in the absence of induction. The exonuclease and polymerase activities of recombinant clones were assayed using bacterial lysates. Typically, crude extracts were heated at 70° C. for 15-30 minutes and then centrifuged to obtain a cleared lysate.
There are several methods of measuring 3′ to 5′ exonuclease activity known in the art, including that of Kong et al. (Kong et al., 1993, J. Biol. Chem. 268: 1965) and that of Southworth et al. (Southworth et al., 1996, Proc. Natl. Acad. Sci. U.S.A. 93: 5281), the full contents of both of which are hereby incorporated by reference. The exonuclease activity of wild type and active mutant polymerases as measured by the Kong et al. method were as follows: […]

[5] = Reha-Krantz et al., 1993; cited from earlier work

AmpliTaq FS: Taq F667Y mutant DNA polymerase (ABI / Perkin Elmer)
ddG:dT mispair formation frequency, higher than JDF-3 P410L/A485T (primer:template): 20 fold
ddT:dC mispair formation frequency, higher than JDF-3 P410L/A485T (primer:template): 3 fold

Y412F: VENT DNA polymerase site-directed mutant Y412F (Gardner and Jack, 1999)
analog incorporation ([1]; Gardner and Jack, 1999): no change in analog incorporation

Y412V: VENT DNA polymerase site-directed mutant Y412V (Gardner and Jack, 1999)
dideoxynucleotide incorporation relative to unmutated / wild type enzyme ([1]; literature values): 2 fold
increase in incorporation of ribonucleotide ATP [2]: 200 fold

B1: Pfu: Family B DNA polymerase from Pyrococcus furiosus (protein, UniProt P61875 1-775, looked up)
DNA polymerase: MILDVDYITEEGKPVIRLFKKENGKFKIEHDRTFRPYIYALLRDDSKIEEVKKITGERHGKIVRIVDVEKVEKKFLGKPITVWKLYLEHPQDVPTIREKVREHPAVVDIFEYDIPFAKRYLIDKGLIPMEGEEELKILAFDIETLYHEGEEFGKGPIIMISYADENEAKVITWKNIDLPYVEVVSSEREMIKRFLRIIREKDPDIIVTYNGDSFDFPYLAKRAEKLGIKLTIGRDGSEPKMQRIGDMTAVEVKGRIHFDLYHVITRTINLPTYTLEAVYEAIFGKPKEKVYADEIAKAWESGENLERVAKYSMEDAKATYELGKEFLPMEIQLSRLVGQPLWDVSRSSTGNLVEWFLLRKAYERNEVAPNKPSEEEYQRRLRESYTGGFVKEPEKGLWENIVYLDFRALYPSIIITHNVSPDTLNLEGCKNYDIAPQVGHKFCKDIPGFIPSLLGHLLEERQKIKTKMKETQDPIEKILLDYRQKAIKLLANSFYGYYGYAKARWYCKECAESVTAWGRKYIELVWKELEEKFGFKVLYIDTDGLYATIPGGESEEIKKKALEFVKYINSKLPGLLELEYEGFYKRGFFVTKKRYAVIDEEGKVITRGLEIVRRDWSEIAKETQARVLETILKHGDVEEAVRIVKEVIQKLANYEIPPEKLAIYEQITRPLHEYKAIGPHVAVAKKLAAKGVKIKPGMVIGYIVLRGDGPISNRAILAEEYDPKKHKYDAEYYIENQVLPAVLRILEGFGYRKEDLRYQKTRQVGLTSWLNIKKS
Specific Activity (U/mg) × 10^4 Primed M13 (Primed M13): 2.0 ± .02 (U/mg) × 10^4
DNA (DNA): 0.7 nM
dNTP (μM each) [3]: 16 ± 2 μM each

B2: JDF-3: Recombinant wild-type Thermococcus species JDF-3 Family B DNA polymerase (SEQ ID NO: 2) (protein)
chain: MILDVDYITENGKPVIRVFKKENGEFRIEYDREFEPYFYALLRDDSAIEEIKKITAERHGRVVKVKRAEKVKKKFLGRSVEVWVLYFTHPQDVPAIRDKIRKHPAVIDIYEYDIPFAKRYLIDKGLIPMEGEEELKLMSFDIETLYHEGEEFGTGPILMISYADESEARVITWKKIDLPYVEVVSTEKEMIKRFLRVVKEKDPDVLITYNGDNFDFAYLKKRCEKLGVSFTLGRDGSEPKIQRMGDRFAVEVKGRVHFDLYPVIRRTINLPTYTLEAVYEAVFGKPKEKVYAEEIATAWETGEGLERVARYSMEDARVTYELGREFFPMEAQLSRLIGQGLWDVSRSSTGNLVEWFLLRKAYERNELAPNKPDERELARRRGGYAGGYVKEPERGLWDNIVYLDFRSLYPSIIITHNVSPDTLNREGCRSYDVAPEVGHKFCKDFPGFIPSLLGNLLEERQKIKRKMKATLDPLEKNLLDYRQRAIKILANSYYGYYGYARARWYCRECAESVTAWGREYIEMVIRELEEKFGFKVLYADTDGLHATIPGADAETVKKKAMEFLNYINPKLPGLLELEYEGFYVRGFFVTKKKYAVIDEEGKITTRGLEIVRRDWSEIAKETQARVLEAILRHGDVEEAVRIVREVTEKLSKYEVPPEKLVIHEQITRELKDYKATGPHVAIAKRLAARGVKIRPGTVISYIVLKGSGRIGDRAIPFDEFDPTKHKYDADYYIENQVLPAVERILRAFGYRKEDLRYQKTRQVGLGAWLKPKGKKK
modifications: Thermococcus sp. JDF-3
Specific Activity (U/mg) × 10^4 Activated DNA (Activated DNA): 1.2 ± .07 (U/mg) × 10^4
Specific Activity (U/mg) × 10^4 Primed M13 (Primed M13): 5.2 (U/mg) × 10^4
DNA (DNA): 2.0 nM
dNTP (μM each) [3]: 16 ± 2 μM each
Exo activity (U/mg) [4]: 915 U/mg

B3: L412M: L412M bacteriophage T4 DNA polymerase mutant (Reha-Krantz et al., 1993) (protein, UniProt P04415 1-898, looked up, variant L412M)
DNA-directed DNA polymerase: MKEFYISIETVGNNIVERYIDENGKERTREVEYLPTMFRHCKEESKYKDIYGKNCAPQKFPSMKDARDWMKRMEDIGLEALGMNDFKLAYISDTYGSEIVYDRKFVRVANCDIEVTGDKFPDPMKAEYEIDAITHYDSIDDRFYVFDLLNSMYGSVSKWDAKLAAKLDCEGGDEVPQEILDRVIYMPFDNERDMLMEYINLWEQKRPAIFTGWNIEGFDVPYIMNRVKMILGERSMKRFSPIGRVKSKLIQNMYGSKEIYSIDGVSILDYLDLYKKFAFTNLPSFSLESVAQHETKKGKLPYDGPINKLRETNHQRYISYNIIDVESVQAIDKIRGFIDLVLSMSYYAKMPFSGVMSPIKTWDAIIFNSLKGEHKVIPQQGSHVKQSFPGAFVFEPKPIARRYIMSFDLTSMYPSIIRQVNISPETIRGQFKVHPIHEYIAGTAPKPSDEYSCSPNGWMYDKHQEGIIPKEIAKVFFQRKDWKKKMFAEEMNAEAIKKIIMKGAGSCSTKPEVERYVKFSDDFLNELSNYTESVLNSLIEECEKAATLANTNQLNRKILINSLYGALGNIHFRYYDLRNATAITIFGQVGIQWIARKINEYLNKVCGTNDEDFIAAGDTDSVYVCVDKVIEKVGLDRFKEQNDLVEFMNQFGKKKMEPMIDVAYRELCDYMNNREHLMHMDREAISCPPLGSKGVGGFWKAKKRYALNVYDMEDKRFAEPHLKIMGMETQQSSTPKAVQEALEESIRRILQEGEESVQEYYKNFEKEYRQLDYKVIAEVKTANDIAKYDDKGWPGFKCPFHIRGVLTYRRAVSGLGVAPILDGNKVMVLPLREGNPFGDKCIAWPSGTELPKEIRSDVLSWIDHSTLFQKSFVKPLAGMCESAGMDYEEKASLDFLFG
ddGTP needed for inhibition, less than wild-type polymerase [5]: 50 fold
